Biological target: the molecule itself
Test: nonreducing PAGE and immunoblotting

B1: STING (natural protein, mouse (endogenous in BMDMs), UniProt Q3TBT3 1-378, looked up)
chain: MPYSNLHPAIPRPRGHRSKYVALIFLVASLMILWVAKDPPNHTLKYLALHLASHELGLLLKNLCCLAEELCHVQSRYQGSYWKAVRACLGCPIHCMAMILLSSYFYFLQNTADIYLSWMFGLLVLYKSLSMLLGLQSLTPAEVSAVCEEKKLNVAHGLAWSYYIGYLRLILPGLQARIRMFNQLHNNMLSGAGSRRLYILFPLDCGVPDNLSVVDPNIRFRDMLPQQNIDRAGIKNRVYSNSVYEILENGQPAGVCILEYATPLQTLFAMSQDAKAGFSREDRLEQAKLFCRTLEEILEDVPESRNNCRLIVYQEPTDGNSFSLSQEVLRHIRQEEKEEVTMNAPMTSVAPPPSVLSQEPRLLISGMDQPLPLRTDLI
  stoichiometry N: 2

Source: article PMC6347470 (Immunity, 2018)
